# T1: SVCV-G protein, purified, biotinylated (spring viremia of carp virus (SVCV), UniProt Q91DS0 19-509, biotin (biotinylated))
# T1 chain: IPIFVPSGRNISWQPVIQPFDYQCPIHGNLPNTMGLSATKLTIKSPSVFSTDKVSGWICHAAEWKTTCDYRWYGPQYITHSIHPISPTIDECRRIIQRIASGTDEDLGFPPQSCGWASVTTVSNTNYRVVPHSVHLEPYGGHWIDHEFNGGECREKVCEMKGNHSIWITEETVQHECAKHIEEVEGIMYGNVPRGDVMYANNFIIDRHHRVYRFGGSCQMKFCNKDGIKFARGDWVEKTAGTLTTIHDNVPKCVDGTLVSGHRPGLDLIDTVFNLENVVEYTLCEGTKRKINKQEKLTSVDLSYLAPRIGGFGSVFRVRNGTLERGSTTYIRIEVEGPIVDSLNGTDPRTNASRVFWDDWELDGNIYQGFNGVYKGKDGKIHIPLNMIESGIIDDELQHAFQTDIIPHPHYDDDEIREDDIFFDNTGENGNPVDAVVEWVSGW
# Biological target: T1, SVCV-G protein, purified, biotinylated
# Assay: BLI
row,Binder,Kd
1,scFv-2 (scFv) chain 1: QSVEESGGRLITPGTPLTLTCTASGFSLSSHYMIWVRRTPGKGLEWIGLIFISGSTNYANWAKGRFTVSRTSTTVDLKITSPTTEDTATYFCARGRGGTDYQSWLFGLWGQGTVVTVSS chain 2: ELVMTQTPSPVSVAVGGTVTINCQSSPSVYSNYLSWYQQKPGQPPKQLIYGASSLASGVPSRFKGSGSGTQFTLTISGVECDDAATYYCVGWKGGPNGEFAFGGGDRAGDP,3.71 µM
2,scFv-1 (scFv) chain 1: QSVEESGGRLVTPGTPLTLTCTASGFSLSTYYMTWVRQAPGKGLEWIGIIDPYGTTWSASWVKGRFTISRTSTTVDLKMTSLTAADTATYFCARIDSIYTIGHCDLWGQGTLVTVSL chain 2: ELVMTQTPASVSAAVGGTVTIKCQASQSIGTALAWYQQKPGQPPKLLIYKTSTLASGVSSRFKGSGSGTEFTLTISDLECADAVTYYCQYAYYGGNDVGGAFGGGDRAGDP,3.12 µM
